Measurements as given in IntAct's records for PubMed 31515488.

B1: Protein DDI1 homolog 1 (Homo sapiens), Q8WTU0 (parent)
chain: MLITVYCVRRDLSEVTFSLQVSPDFELRNFKVLCEAESRVPVEEIQIIHMERLLIEDHCSLGSYGLKDGDIVVLLQKDNVGPRAPGRAPNQPRVDFSGIAVPGTSSSRPQHPGQQQQRTPAAQRSQGLASGEKVAGLQGLGSPALIRSMLLSNPHDLSLLKERNPPLAEALLSGSLETFSQVLMEQQREKALREQERLRLYTADPLDREAQAKIEEEIRQQNIEENMNIAIEEAPESFGQVTMLYINCKVNGHPLKAFVDSGAQMTIMSQACAERCNIMRLVDRRWAGVAKGVGTQRIIGRVHLAQIQIEGDFLQCSFSILEDQPMDMLLGLDMLRRHQCSIDLKKNVLVIGTTGTQTYFLPEGELPLCSRMVSGQDESSDKEITHSVMDSGRKEH
partner: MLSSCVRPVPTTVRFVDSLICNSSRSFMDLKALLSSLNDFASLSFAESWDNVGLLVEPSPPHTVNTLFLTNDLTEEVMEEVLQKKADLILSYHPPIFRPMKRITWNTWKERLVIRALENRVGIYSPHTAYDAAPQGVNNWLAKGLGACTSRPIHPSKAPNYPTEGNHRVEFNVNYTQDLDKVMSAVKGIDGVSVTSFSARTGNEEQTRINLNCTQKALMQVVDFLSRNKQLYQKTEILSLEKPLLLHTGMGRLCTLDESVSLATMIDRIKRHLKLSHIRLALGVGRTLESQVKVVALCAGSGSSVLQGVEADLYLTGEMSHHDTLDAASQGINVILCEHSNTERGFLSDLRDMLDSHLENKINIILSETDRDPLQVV
B2: Medium-chain acyl-CoA ligase ACSF2, mitochondrial (Homo sapiens), Q96CM8 (parent)
chain: MAVYVGMLRLGRLCAGSSGVLGARAALSRSWQEARLQGVRFLSSREVDRMVSTPIGGLSYVQGCTKKHLNSKTVGQCLETTAQRVPEREALVVLHEDVRLTFAQLKEEVDKAASGLLSIGLCKGDRLGMWGPNSYAWVLMQLATAQAGIILVSVNPAYQAMELEYVLKKVGCKALVFPKQFKTQQYYNVLKQICPEVENAQPGALKSQRLPDLTTVISVDAPLPGTLLLDEVVAAGSTRQHLDQLQYNQQFLSCHDPINIQFTSGTTGSPKGATLSHYNIVNNSNILGERLKLHEKTPEQLRMILPNPLYHCLGSVAGTMMCLMYGATLILASPIFNGKKALEAISRERGTFLYGTPTMFVDILNQPDFSSYDISTMCGGVIAGSPAPPELIRAIINKINMKDLVVAYGTTENSPVTFAHFPEDTVEQKAESVGRIMPHTEARIMNMEAGTLAKLNTPGELCIRGYCVMLGYWGEPQKTEEAVDQDKWYWTGDVATMNEQGFCKIVGRSKDMIIRGGENIYPAELEDFFHTHPKVQEVQVVGVKDDRMGEEICACIRLKDGEETTVEEIKAFCKGKISHFKIPKYIVFVTNYPLTISGKIQKFKLREQMERHLNL
partner: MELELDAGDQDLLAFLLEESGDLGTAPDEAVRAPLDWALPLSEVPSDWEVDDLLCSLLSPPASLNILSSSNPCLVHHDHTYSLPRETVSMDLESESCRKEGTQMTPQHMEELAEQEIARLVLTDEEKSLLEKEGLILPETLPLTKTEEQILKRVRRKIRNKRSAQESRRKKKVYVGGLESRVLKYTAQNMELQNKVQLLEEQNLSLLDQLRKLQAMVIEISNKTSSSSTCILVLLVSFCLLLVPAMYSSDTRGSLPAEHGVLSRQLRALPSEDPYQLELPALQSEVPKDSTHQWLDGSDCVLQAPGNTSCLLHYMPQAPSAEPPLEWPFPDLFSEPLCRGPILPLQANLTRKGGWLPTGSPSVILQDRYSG
B3: Isoform 1 of Targeting protein for Xklp2 (Homo sapiens), Q9ULW0-1 (parent)
chain: MSQVKSSYSYDAPSDFINFSSLDDEGDTQNIDSWFEEKANLENKLLGKNGTGGLFQGKTPLRKANLQQAIVTPLKPVDNTYYKEAEKENLVEQSIPSNACSSLEVEAAISRKTPAQPQRRSLRLSAQKDLEQKEKHHVKMKAKRCATPVIIDEILPSKKMKVSNNKKKPEEEGSAHQDTAEKNASSPEKAKGRHTVPCMPPAKQKFLKSTEEQELEKSMKMQQEVVEMRKKNEEFKKLALAGIGQPVKKSVSQVTKSVDFHFRTDERIKQHPKNQEEYKEVNFTSELRKHPSSPARVTKGCTIVKPFNLSQGKKRTFDETVSTYVPLAQQVEDFHKRTPNRYHLRSKKDDINLLPSKSSVTKICRDPQTPVLQTKHRARAVTCKSTAELEAEELEKLQQYKFKARELDPRILEGGPILPKKPPVKPPTEPIGFDLEIEKRIQERESKKKTEDEHFEFHSRPCPTKILEDVVGVPEKKVLPITVPKSPAFALKNRIRMPTKEDEEEDEPVVIKAQPVPHYGVPFKPQIPEARTVEICPFSFDSRDKERQLQKEKKIKELQKGEVPKFKALPLPHFDTINLPEKKVKNVTQIEPFCLETDRRGALKAQTWKHQLEEELRQQKEAACFKARPNTVISQEPFVPKKEKKSVAEGLSGSLVQEPFQLATEKRAKERQELEKRMAEVEAQKAQQLEEARLQEEEQKKEELARLRRELVHKANPIRKYQGLEIKSSDQPLTVPVSPKFSTRFHC
partner: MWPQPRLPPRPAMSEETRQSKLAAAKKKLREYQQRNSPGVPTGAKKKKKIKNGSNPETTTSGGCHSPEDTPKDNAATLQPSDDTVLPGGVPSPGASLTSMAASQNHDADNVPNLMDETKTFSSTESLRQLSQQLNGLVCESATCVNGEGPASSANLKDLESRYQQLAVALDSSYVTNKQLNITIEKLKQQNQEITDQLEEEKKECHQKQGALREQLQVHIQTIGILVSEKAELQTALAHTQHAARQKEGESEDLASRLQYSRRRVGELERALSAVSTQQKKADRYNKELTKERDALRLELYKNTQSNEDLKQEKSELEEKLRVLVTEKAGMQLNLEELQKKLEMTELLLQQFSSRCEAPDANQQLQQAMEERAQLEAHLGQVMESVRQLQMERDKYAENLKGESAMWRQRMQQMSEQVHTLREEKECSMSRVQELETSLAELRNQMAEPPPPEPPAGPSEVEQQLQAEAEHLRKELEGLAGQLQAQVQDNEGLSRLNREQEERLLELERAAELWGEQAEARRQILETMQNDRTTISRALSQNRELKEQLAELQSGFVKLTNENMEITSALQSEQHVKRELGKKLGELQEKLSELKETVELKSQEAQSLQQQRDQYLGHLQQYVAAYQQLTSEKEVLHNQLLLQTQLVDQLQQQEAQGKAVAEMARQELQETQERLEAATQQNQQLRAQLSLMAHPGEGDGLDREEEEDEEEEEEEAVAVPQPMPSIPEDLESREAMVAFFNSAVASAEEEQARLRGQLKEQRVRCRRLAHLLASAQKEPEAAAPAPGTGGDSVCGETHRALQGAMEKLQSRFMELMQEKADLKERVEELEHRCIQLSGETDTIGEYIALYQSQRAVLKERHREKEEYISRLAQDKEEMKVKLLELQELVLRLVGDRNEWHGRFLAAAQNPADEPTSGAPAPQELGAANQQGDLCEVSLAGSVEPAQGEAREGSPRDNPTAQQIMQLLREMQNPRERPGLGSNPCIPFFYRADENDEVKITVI
B4: Charged multivesicular body protein 4a (Homo sapiens), Q9BY43 (parent)
chain: MSGLGRLFGKGKKEKGPTPEEAIQKLKETEKILIKKQEFLEQKIQQELQTAKKYGTKNKRAALQALRRKKRFEQQLAQTDGTLSTLEFQREAIENATTNAEVLRTMELAAQSMKKAYQDMDIDKVDELMTDITEQQEVAQQISDAISRPMGFGDDVDEDELLEELEELEQEELAQELLNVGDKEEEPSVKLPSVPSTHLPAGPAPKVDEDEEALKQLAEWVS
partner: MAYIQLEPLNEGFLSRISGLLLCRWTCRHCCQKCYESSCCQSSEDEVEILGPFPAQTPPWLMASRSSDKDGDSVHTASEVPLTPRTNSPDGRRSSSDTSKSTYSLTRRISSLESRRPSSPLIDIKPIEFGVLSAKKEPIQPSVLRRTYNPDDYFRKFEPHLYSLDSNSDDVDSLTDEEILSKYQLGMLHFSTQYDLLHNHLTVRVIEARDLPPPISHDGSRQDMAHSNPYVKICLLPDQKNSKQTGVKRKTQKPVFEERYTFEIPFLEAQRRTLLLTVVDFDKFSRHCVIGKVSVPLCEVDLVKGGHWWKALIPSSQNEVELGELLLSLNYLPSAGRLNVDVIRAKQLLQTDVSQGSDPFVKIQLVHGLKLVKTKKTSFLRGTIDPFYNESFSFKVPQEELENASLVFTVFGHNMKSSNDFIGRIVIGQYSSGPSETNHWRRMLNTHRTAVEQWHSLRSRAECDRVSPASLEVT
B5: Aflatoxin B1 aldehyde reductase member 2 (Homo sapiens), O43488 (parent)
chain: MLSAASRVVSRAAVHCALRSPPPEARALAMSRPPPPRVASVLGTMEMGRRMDAPASAAAVRAFLERGHTELDTAFMYSDGQSETILGGLGLGLGGGDCRVKIATKANPWDGKSLKPDSVRSQLETSLKRLQCPQVDLFYLHAPDHGTPVEETLHACQRLHQEGKFVELGLSNYASWEVAEICTLCKSNGWILPTVYQGMYNATTRQVETELFPCLRHFGLRFYAYNPLAGGLLTGKYKYEDKDGKQPVGRFFGNSWAETYRNRFWKEHHFEAIALVEKALQAAYGASAPSVTSAALRWMYHHSQLQGAHGDAVILGMSSLEQLEQNLAATEEGPLEPAVVDAFNQAWHLVAHECPNYFR
partner: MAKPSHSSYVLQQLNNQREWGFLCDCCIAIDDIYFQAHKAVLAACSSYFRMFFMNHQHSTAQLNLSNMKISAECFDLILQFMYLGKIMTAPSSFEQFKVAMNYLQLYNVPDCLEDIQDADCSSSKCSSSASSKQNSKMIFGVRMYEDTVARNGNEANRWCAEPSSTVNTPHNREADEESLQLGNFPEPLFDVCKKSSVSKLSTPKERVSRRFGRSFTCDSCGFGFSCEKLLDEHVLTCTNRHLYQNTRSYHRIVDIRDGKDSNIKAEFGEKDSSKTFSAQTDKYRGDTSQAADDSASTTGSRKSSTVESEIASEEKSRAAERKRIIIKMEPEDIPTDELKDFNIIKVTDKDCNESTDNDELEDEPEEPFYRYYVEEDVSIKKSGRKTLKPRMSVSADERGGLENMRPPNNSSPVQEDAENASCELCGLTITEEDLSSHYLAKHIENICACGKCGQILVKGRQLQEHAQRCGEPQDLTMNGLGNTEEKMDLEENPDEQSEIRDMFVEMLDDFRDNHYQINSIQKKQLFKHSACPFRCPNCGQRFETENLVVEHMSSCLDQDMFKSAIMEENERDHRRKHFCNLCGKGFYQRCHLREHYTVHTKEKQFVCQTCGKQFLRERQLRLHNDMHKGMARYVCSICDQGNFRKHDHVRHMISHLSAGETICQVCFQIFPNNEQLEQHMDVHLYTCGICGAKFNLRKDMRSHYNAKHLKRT
B6: Ras association domain-containing protein 7 (Homo sapiens), Q02833 (parent)
chain: MLLGLAAMELKVWVDGIQRVVCGVSEQTTCQEVVIALAQAIGQTGRFVLVQRLREKERQLLPQECPVGAQATCGQFASDVQFVLRRTGPSLAGRPSSDSCPPPERCLIRASLPVKPRAALGCEPRKTLTPEPAPSLSRPGPAAPVTPTPGCCTDLRGLELRVQRNAEELGHEAFWEQELRREQAREREGQARLQALSAATAEHAARLQALDAQARALEAELQLAAEAPGPPSPMASATERLHQDLAVQERQSAEVQGSLALVSRALEAAERALQAQAQELEELNRELRQCNLQQFIQQTGAALPPPPRPDRGPPGTQGPLPPAREESLLGAPSESHAGAQPRPRGGPHDAELLEVAAAPAPEWCPLAAQPQAL

Variants of: B1
Settings: with nif3l_human NIF3L1, Q9GZT8

| Variant | effect of a mutation on the interaction |
| --- | --- |
| R87C | with no effect |
| D323N | with no effect |
| R208G | with no effect |
| S63A | with no effect |
| N228T | with no effect |
| G136S | with no effect |

Variants of: B2
Settings: with creb3_human CREB3, O43889

| Variant | effect of a mutation on the interaction |
| --- | --- |
| G19W | disrupting interaction strength |
| A34V | disrupting interaction strength |

Variants of: B3
Settings: with goga2_human GOLGA2, Q08379

| Variant | effect of a mutation on the interaction |
| --- | --- |
| T464N | with no effect |

Variants of: B4
Settings: with syt17_human SYT17, Q9BSW7

| Variant | effect of a mutation on the interaction |
| --- | --- |
| G153R | with no effect |

Variants of: B5
Settings: with zbtb1_human ZBTB1, Q9Y2K1

| Variant | effect of a mutation on the interaction |
| --- | --- |
| A142T | disrupting interaction strength |

Variants of: B6
Settings: with nck2_human NCK2, O43639
nck2_human NCK2, O43639, sequence (O43639 whole entry): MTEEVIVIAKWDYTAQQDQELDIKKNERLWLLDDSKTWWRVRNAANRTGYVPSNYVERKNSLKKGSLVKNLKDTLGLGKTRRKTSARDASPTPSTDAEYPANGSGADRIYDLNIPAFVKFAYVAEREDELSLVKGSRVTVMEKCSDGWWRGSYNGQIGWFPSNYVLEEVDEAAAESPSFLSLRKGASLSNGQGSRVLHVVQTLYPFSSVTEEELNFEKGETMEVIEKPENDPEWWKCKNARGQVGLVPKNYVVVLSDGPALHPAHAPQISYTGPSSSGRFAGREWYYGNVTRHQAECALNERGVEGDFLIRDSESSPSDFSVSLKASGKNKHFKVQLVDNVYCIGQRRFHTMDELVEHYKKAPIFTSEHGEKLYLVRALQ

| Variant | effect of a mutation on the interaction |
| --- | --- |
| R156Q | with no effect |
